This is an account of results in the DeepSol protein solubility set.

This data set can be described thus: soluble on expression in E. coli; label from the status in PepcDB or PDB records.
Turning to “MGSDKIHHHHHHMSLPSIKTTNSYCVVLWCDQGSATINAPDRVVQVMAGDVVLAPHGAFVTGHGVVLPMAFPDFDGGEHTRRLHMGTAWSKRMIFEFSRSLLGETRPSECIAALFDDRARPPRVPEPQAARKVAQKLIAYPADQTPLLEFAQLHNISSRTLQRQFVASTGFTFSEWRAALRVSVAADLLAHDFRIGQVSQMVGFSATSSLTRAFKRHTGDTPSSFTSPRMHAVCEQQPPMIPATTTFARASDDIALWIYSGTATVTTPGYCRFMGAGETVTIPSGTSTRLDVSAGSVALPVPLAAAHDDLTLSDVLAASVNPLAAVELQRLSAQERADVEQVLVPSV”, the “soluble on expression in E. coli” value is on record as “not soluble”.

“MKITVFGATGNVGNRVITEALLRGHEITAVLRNNARANEFDSSVKVVIGHADNVDDVVKWSDGQDLIISATRPPQGLESQLVDTAKALLSGLAQTKVRLLLVGGAASLTVPNSNGMLVVDDTDLVPTAWRDIALACLAQHKLCQENESVDWSYISPPAVIVPGERTGIFRTGSDELLVDEQGQSTISLEDFAIALLDEAEVVKHKRKRFTVAYLEHHHHHH”: the “soluble on expression in E. coli” value is on record as “not soluble”.

For “MAIDPAAAYASAIRTPGLLPNAKLVVDHFHVTTLANDALTAVRRRVTWAFHDRRGRKIDPQWANRRRLLTARERLSDKSFAKMRNRINAVDPRAQILSAWIAKEELRTLLSTVRTGGDPHLARHHLHRFLPGASTRRSPNCSPWPPPLTSHPRSTPSWSPASPTRASVVGEVAEMLGDIDGQCVQVEVPVPERGPAGCGGLDGLGRAGVSATPRVCAAMTAVNVAGRCAGQQADVGPTPQHRCRGR”, the “soluble on expression in E. coli” value is “soluble”.

Take “GSDDLVGVSVRPKVPLRTMSYKLAIDMSHFIKEKGGLEGIYYSARRHRILDIYLEKEEGIIPDWQDYTSGPGIRYPKTFGWLWKLVPVNVSDEAQEDEEHYLMHPAQTSQWDDPWGEVLAWKFDPTLAYTYEAYVRYPEEFGS”: the “soluble on expression in E. coli” value was “soluble”.

With “MGHPRSIRSFVLRQSHMTAAQQRAIDTLWDSFGIDYQATPADLDARFGSSRPKILEIGFGMGTATAEIARRLPETDFLAIDVHGPGVGNLLKLIDENHLENIRVMRHDAVEVVENMLQDGSLDGIHIFFPDPWHKKRHHKRRLIQAPFIAKLLPKLKTGGYIHLATDWEEYAQQMLEVLSSFDSLQNTAADYAPTPDYRPETKFEARGKRLGHGVWDLVFKRIGLEHHHHHH”, the “soluble on expression in E. coli” value was “soluble”.

As to “MGSDKIHHHHHHMTIRSKFALFAGSSSYILLHKILHRGGTSLPGKIAYRIDPTFLEEFRDQIETVIVSGTNGKTLTTALCARVLKKTNRVVVTNNSGSNMIQGIVAALLSQKDKIKKSIRHGTIPIAVLEVDEANVKEVAKILQPTHFVLTNIFRDQMDRYGEIYTTYEKITDGIKTAPKAKVVANGDSPIFARKPYKNQAVYFGFTHKKSVGDLRAPNNTDGVLAPTNDQVLHYHYLTYANLGDYFTKDGSFKRPQLKYSVNKINSLTPSKSEFEIAGNKFTLPLGGLYNIYNALAAYSLGREFQISAEDIFNALNEDSRIFGRQEQLTIGSHLVTIVLIKNPVGANSVIDMMMTDPEEFSLVTLLNANYADGIDTSWIFDAEFEKLHQTALKKIIVGGQRYKDFSVRLKMAGFKNQIVEQDFAKLIDRIKELPTKNVYVAATYTSMLMFREELAKAGLAKESF”, the “soluble on expression in E. coli” value was “not soluble”.

As for “MLETYDWNNKLTYLKNTRDLYYNDDYVSFLVNTVWKITKPVHIVDYGCGYGYLGLVLMPLLPEGSKYTGIDSGETLLAEARELFRLLPYDSEFLEGDATEIELNDKYDIAICHAFLLHMTTPETMLQKMIHSVKKGGKIICFEPHWISNMASYLLDGEKQSEFIQLGVLQKLFESDTQRNGKDGNIGMKIPIYLSELGVKNIECRVSDKVNFLDSNMHHNDKNDLYQSLKEEGIAGDPGDKQQFVERLIARGLTYDNALAQYEAELRFFKALHLHSSLVYAPNMKITFGEIECMAGDPLEHHHHHH”, the “soluble on expression in E. coli” value is “soluble”.

Take “MIRLILILINILFCHYLYALDCQKRLFDISINEKLSIQESLDELAKYCSFSIIVKDKIAKEKLETLQNSVNIHQMSLDEIFNFFIKEHDLSYDFDGKILRISGINTKIFKISYITSIREGQSITKASVDAKPRQSEYSGSFDDAEDNMIKSMEKFDFWQNIEKEIIVLLKNSHEDYEAKTPIINPNAGLIIVTGTNSQLKSVKNYLQKLENRLKKQVIIDVSILAVSLNESHSSGINWQNFNIGLNSQVNNENSFIQFQNGQGFVKNLGLRANLNFDSIINFLSQNGKTSVLSNPKLMALNNQQAIISVGDTINYQVKESSKGTENGTTVSESYNNYSIFVGILLNILPEISDDGKIMLRINPSLSDFKYPEDNKRQKEPRTIAPDTIQKKLSSVVQVENNQTLILGGLISHDKSNEKNSINFLSKIPILGSLFKGEVLNSKATEIVFIITPSIVDSVNAPSLKDLGFKHYELEHHHHHH”: the “soluble on expression in E. coli” value is “not soluble”.

For “MGSDKIHHHHHHMELKILVTGGNVFVPGRLNAHFSTVVYLEHKDRRIIIDPGNLSSMDELEEKFSELGISPDDITDVLFTHVHLDHIFNSVLFENATFYVHEVYKTKNYLSFGTIVGRIYSKVISSWKNVVLLKGEESLFDEKVKVFHTPWHAREHLSFLLDTENAGRVLITGDITPNRLSYYDIIKGYGSVQVKNFLDRVGRIDLLVFPHDAPLKPEVKK”, the “soluble on expression in E. coli” value is listed as “soluble”.

With “MPIHVDKPDTMQNELIDIVADGLRSNQIYTFRMILKHDYGTHKSEATFQADPAGRIDLKYAKPLRGSYYDADPMGLFLGMKPCEDFAYGGYLRCTPPVPFYYLLELFDSSGTLIDSTYIKKHWMHPKLIRTELEEDFCATLFKPPGDGPFPVVLDISGTGGGIHEHKGAMLASEGFVVLCLAFFQFKYLPQKMEDVDMEYFAKAINYLIDLPFTKNVIGIQGVSFGATIVDLLTTRHGDKIKALVSINGPQVVSDYLFMQENGAPIPHLSHGQVTLEHCQFINGVMCSHRNFQIMTEKLTPETEIPWERIPSDVKIRVIGSVDDLCQPSVHATYYRQRRLKETGHDVEVELVNGGHIMEPPYFPHHELVYAKYQGFYCGYGGEVVLHAKSQEKTWSNTIKFFQKALGNTKKIQDWDRLTVVVPPRKKSKL”, the “soluble on expression in E. coli” value is “not soluble”.

Take “MGSDKIHHHHHHMKNAAISDSTLVSQYIQGNEEAFAELIKRHKSKVYSTIYLIVKDRYLAEDLLQDVFIKVIHKMKGGQYNDEGKFLPWVVRIAHNLAIDYFRRNKRYPTIVMDEGMNIFNSLNFSEDSTESIQIKGENEALIRSLIHKLPESQREVVLMRHFSDMSFQEIADSTGVSINTALGRMRYALINLRKELTKQPKPIVYDKNVYPK”: the “soluble on expression in E. coli” value was “not soluble”.

Consider “MGSDKIHHHHHHMNFNELKTFVALVETKHFTKTADRLYISQPTVSLHLKHLEEHFGQSLIHRHTFNKTIEISEAGWIVYRHAKEILHQAIRLEQEIDELEGITRGTLRIAATHTIYEAMLEEMIHDFLLVYPDVSVDARVMNQEQVEQALLHYEIDLGMVEGLHRSHQIEAIPFATDRLRIIGHHHLVPEQATWIYREEGSAARLALETWLQTQAIVPKRIITVYSNRLIKQLIKNGTGISILSERLAGSLLESERFQTYDDSQIDPRMFQFITLKGETTRLSQKWINQHGGSD”, for which the “soluble on expression in E. coli” value is reported as “not soluble”.

For the sequence “SDNDLKLLALESETIRSVADLHNKRVGMIRASASEFYFDSLLLANNLKGIPIDKVYGTADQLYQQLFDKQLDAISIWEPWGYKIGVAAESKVTNLSLPGIYTLSFNLLTMKPTTEEEKQRSLAILKA”, the “soluble on expression in E. coli” value is given as “not soluble”.

For “GHMDIAEPAELDADELKRVLEALLLVIDTPVTADALAAATEQPVYRVAAKLQLMADELTGRDSGIDLRHTSEGWRMYTRARFAPYVEKLLLDGARTKLTRAALETLAVVAYRQPVTRARVSAVRGVNVDAVMRTLLARGLITEVGTDADTGAVTFATTELFLERLGLTSLSELPDIAPLLPDVDTIDDLSESLDSEPRFIKLTGELASEQTLSFDVDRD”, the “soluble on expression in E. coli” value is “soluble”.

With “ADKKRALEKEDMERLMKDIPKQLHSGNRELQRARGFFILMFLLRGMPFVDLAYLKKHDIDGNVLTYRRRKTGRMLTVTLLPEAVKLIKQHMNTDPAFPYLFSLISSKEGTEEAYKEYQLALRNFNYQLMILKQVLGLTTDLSSYTARHTWATMAYYCEVHPGVISEAMGHSSITVTETYLKPFKNKKIDEANVMVFSSFRKSFSVGNCLN”, the “soluble on expression in E. coli” value is listed as “not soluble”.

As for “MGSDKIHHHHHHMVSHKKNDRPRPLWILKIHKRLSLFEFKRYATGIGKDDGQDISWVLKGNAKNNVYQVTVETMENCETDECKKVIWVPDELAESTGTMFEDFKEDQPQESVSSISNNEANWGSSVNELDENYEKMQKEETFDPYDSDSDTSEDSDFDEDFEDSDKTMCSGQS”, the “soluble on expression in E. coli” value is “not soluble”.

For the sequence “MSKKVAILVDGDFFIRCYKSHLKKQPEDLNPKKLAHHIHTYCLKHINKKNDEELYRIFFYDCKPLKKKAHYPYTQKALDLSKSPTYREREELHEHLISKPCLALRLGYLDEKNARWVIRDQEKEKKLFNRRISIEEFQNDDFIYHAKQKGVDIKIGLDIATLALKKLVQKIVLISGDSDFVPASKLARVEGIIFTLDPMGNHIREDLKEHIDYLTTRLPQFKQQ”, the “soluble on expression in E. coli” value is reported as “soluble”.

Take “MGSSHHHHHHSSGRENLYFQGVRPAVIAATGLYTPPDSVSNAELVEAFNTYVANFNAANKARIEAGEIEPLQPSSSEFIEKASGIKSRYVVAKPGIVDPDVMRPIIPERSNDELSILAEMAVTAAEQAIERWGKPRERIGAVLCACSNMQRAYPAMAIEVQNALGLGGFAFDMNVACSSATFGLKTAADFVGGGSVDAVLMVNPEICSGHLNFRDRDSHFIFGDVATAAIVERADDAQGGWSILGTKLKTQFSNNIRNNAGFLNRAWPEGRDKADKLFVQQGRKVFKEVVPLVSEMIIEHAREIGIDPHGLKRMWLHQANINMNEIIGRKVLGRDPTRDENVIILDDYANTSSAGSIIAFHKHQDDMAQGDLGLICSFGAGYSAGTVFVQKR”: the “soluble on expression in E. coli” value was “soluble”.

On to “MRGSVAALLLAAGRSIRMGRCKQLLPLGNTTVLGRCLDTLRRGGVGEIAVVVSADGEQVARAAAGHGVRVVVNPDREGDMASSVRAGRDAFGSAVGGVIVSLCDQPLVAAGTVARLRDRHATEPGRIIIPTHGGRRGHPLLFPLPVLAELEDGLTLRDLVVCDPARVCCVAVADPGILIDMDTPEDYRHVCRLMAPQEGLSLRLEHHHHHH”, for which the “soluble on expression in E. coli” value is recorded as “not soluble”.

For “MGSDKIHHHHHHMSIKILQPGLFSTVQDLGRKGYEHIGFSGAGAMDQFSFKVAQLLINNDGPAIEYTLIGPTIQFNTQNTFVITGGSVNASLNNKTISMNSVILAEKGDILKIGAITKGARGYLTFGHSINVPPIAESYATHTRSSIGGFKGRKLLANDVITVKINNDFKENIGKTIHLQDDLLPENNIIHILQGPQFEAFSEEARAKIVNHPYLITEQSDRMGYRLEGDSVAPINQADIISEPVALGSVQVPNDGQPIILLNDKQTIGGYTKIATVCKFDLPKLAQMKPQDTIQFKWISFQEAVDKNREQMSLFNEILKSHQKTPIFDTSSLRHTSKKLATILKGDL”, the “soluble on expression in E. coli” value is given as “not soluble”.

As for “MLEKTLLKIALDLSLSLPKKAHYQRLMLAVNEVMPCDAVALLVLQDDYLVPVAVDGLSPEVLGMRFSPEEHPRLKAILSSRKPIRFDADSSYPDPYDGLLSIDPKRVLDVHDCMGCCLYVEENLVGVLTLDALQVGAFSNVDDITVATLAALAAATIRNANCIAVLEKRNEKALCLTNELVKDAHKAKGDD”, the “soluble on expression in E. coli” value is reported as “not soluble”.

On to “MTTLNELKHGLEEAWESLAEGWHRLRERAAGALTRFKPGASVPAVPRRQEDFYLASPTWALLAGDVYEDDRKVVIRLEVPGMEKEDFNLELRGDLLIVQGEKRLERETSEGRYRVLQCAYGHFHRVIPLPAEVVADRVQASYRNGVLKIELPKAAARLPRNIEIPVRLEHHHHHH”, for which the “soluble on expression in E. coli” value is listed as “not soluble”.
